Results from patent US20170157198A1.

What was measured:
[1] = target: T1, TFPI (human TFPI-1α), as coated or added in the ELISA and model assays (human), P10646; test: ELISA; details: modification not given
[2] = target: T1, TFPI (human TFPI-1α), as coated or …; test: competition; details: modification not given

B1: JBT0720 (peptide)
chain: FQSKGNVFVTGYFARLRAKL
IC50 [1]: 27 nM

B2: JBT0783 (peptide)
chain: LKARLREFYGFVFVNKKSQF
IC50 [1]: > 1670 nM

B3: JBT0681 (peptide)
chain: FQSKGAVFVFGYFARLRAKL
IC50 [2]: 68 nM
